T1: CD73 on A549 cells (UniProt P21589 27-549, limits assumed)
T1 sequence (looked up): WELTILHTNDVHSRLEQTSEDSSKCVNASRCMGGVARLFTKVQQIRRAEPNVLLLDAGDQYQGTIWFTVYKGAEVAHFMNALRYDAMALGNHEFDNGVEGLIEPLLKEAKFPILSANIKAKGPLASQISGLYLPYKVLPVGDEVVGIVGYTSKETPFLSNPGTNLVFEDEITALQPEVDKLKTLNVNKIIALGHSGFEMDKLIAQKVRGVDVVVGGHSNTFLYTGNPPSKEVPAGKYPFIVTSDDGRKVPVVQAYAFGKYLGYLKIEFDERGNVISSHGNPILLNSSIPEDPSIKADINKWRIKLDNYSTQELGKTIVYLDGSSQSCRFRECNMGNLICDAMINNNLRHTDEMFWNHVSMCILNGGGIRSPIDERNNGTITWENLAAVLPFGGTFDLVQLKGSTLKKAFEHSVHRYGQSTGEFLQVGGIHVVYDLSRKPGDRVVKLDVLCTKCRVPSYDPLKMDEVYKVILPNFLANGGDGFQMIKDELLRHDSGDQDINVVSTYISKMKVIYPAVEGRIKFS

T2: recombinant human CD73 protein with C-terminal 6xHis tag (human, UniProt P21589 27-547, limits assumed)
T2 sequence: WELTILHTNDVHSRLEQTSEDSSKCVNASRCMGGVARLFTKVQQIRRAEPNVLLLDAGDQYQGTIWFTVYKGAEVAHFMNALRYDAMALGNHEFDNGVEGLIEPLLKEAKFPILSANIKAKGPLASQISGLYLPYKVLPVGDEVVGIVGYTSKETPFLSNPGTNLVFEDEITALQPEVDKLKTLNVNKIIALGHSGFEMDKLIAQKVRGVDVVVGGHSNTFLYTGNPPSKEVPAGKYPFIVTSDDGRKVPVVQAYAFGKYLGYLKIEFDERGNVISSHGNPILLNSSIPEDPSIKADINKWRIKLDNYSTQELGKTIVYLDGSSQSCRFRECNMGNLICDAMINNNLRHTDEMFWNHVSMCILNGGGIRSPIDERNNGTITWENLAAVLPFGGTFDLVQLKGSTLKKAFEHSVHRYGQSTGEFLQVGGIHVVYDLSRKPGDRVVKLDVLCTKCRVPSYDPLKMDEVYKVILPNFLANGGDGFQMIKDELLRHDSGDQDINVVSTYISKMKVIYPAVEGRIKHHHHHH


How the values were obtained:
[1] = biological target: recombinant human CD73 protein with C-terminal 6xHis tag (human) (UniProt P21589); assay: cell-based or functional assay
[2] = biological target: T1, CD73 on A549 cells; assay: cell-based or functional assay
[3] = biological target: recombinant human CD73 protein with C-terminal 6xHis tag (human) (UniProt P21589); assay: SPR, Biacore T200, antibody captured on CM5 chip, human CD73 injected, 25 C, 1:1 fit
[4] = biological target: T2, recombinant human CD73 protein with …; assay: cell-based or functional assay
[5] = biological target: T2, recombinant human CD73 protein with …; assay: SPR, Biacore T200, antibody captured by anti-mouse Fc IgG on CM5 chip, human CD73 injected, 25 C, 1:1 fit
Description: Mouse Antibody Capture Kit, which is a commercialized reagent kit, was purchased from GE. Anti-mouse Fc IgG was fixated on a CM5 sensor chip by amine coupling in order to capture the antibody under test with the coupled anti-mouse Fc IgG. A series of human CD73 proteins having a predetermined concentration gradient were then injected, before samples were taken and tested with the pH 1.7 glycine-HCl regeneration testing chip that came with the reagent kit.
The binding constant (Ka), the dissociation rate constant (Kd), and the equilibrium constant (KD) were calculated with the Biacore T200 evaluation software by combining the model fitting data at a 1:1 ratio.

Row | Molecule | EC50 (µg/mL), Biochemical level, inhibition of CD73 enzyme activity [1] | EC50 (µg/mL), Cell level (A549), inhibition of CD73 enzyme activity [2] | Kd [3] | koff [3] | kon [3] | EC50 (µg/mL), Biochemical level, inhibition of CD73 enzyme activity [4] | Kd [5] | koff [5] | kon [5]
1 | MEDI-9447, anti-CD73 monoclonal antibody of MedImmune LLC | 0.0896 µg/mL | 0.032 µg/mL | 0.141 nM | 3.91e-05 s⁻¹ | 278000 M⁻¹ s⁻¹ |  |  |  | 
2 | anti-human CD73 monoclonal antibody 7-C10-Ba-C2 (antibody, V domains shown, Mouse (BABL/c) hybridoma antibody purified from ascitic fluid; also called antibody of the present invention) VH: EVQLQQSGPELVKPGASMKISCKASGYSFTGYTMNWVKQSHGKNLEWIGFITPYNGDTIYNQKFKGKATVTVDKSSSTAYMDLLSLTSEDSAVYYCAREGYDGGYFDYWGQGTTLTVSS VL: DIQMTQSPASLSASVGETVTITCRASENIYSYLAWYQQKQGKSPQLLVYNTQTLAEGVPSRFSGSGSGTQFSLKINSLQPEDFGSYYCQHHYGTPMYPFGGGTKLEIK |  | 0.0854 µg/mL |  |  |  | 0.106 µg/mL | 0.416 nM | 3.21e-05 s⁻¹ | 77200 M⁻¹ s⁻¹

Reference: US20240368299A1 (JIANGSU KANION PHARMACEUTICAL, published 2024)
